From the nanobody polyreactivity screen of Harvey et al. (2022)

Test: yeast display, Sf9 membrane polyspecificity reagent, FACS + sequencing; frameworks hold sequencing errors
How it was run: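 Galactose induction of a Saccharomyces cerevisiae BJ5465 synthetic nanobody display library ran 36–48 hours. The cells were then stained for 1 hour at 4 °C with 10% biotinylated, detergent-solubilized Sf9 membrane reagent, pulled down on streptavidin microbeads and FACS-sorted into low and high (top ~1%) gates on expression and reagent-binding fluorescence. Labels for polyreactivity follow the gate of origin.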

Sequence	polyreactivity (PSR sort gate)
QVQLVESGGGLVQAGGSLRLSCAASGSIVRRYAMGWYRQAPGKEREFVAAISKRGGGTYYADSVKGRFTISRDNAKNTVYLQMNSLKPEDTAVYYCAAPWRRIGYTTRGYTLYDYWGQGTQVTVSS	high polyreactivity
QVQLVESGGGLVQAGGSLRLSCAASGSIVRYYAMGWYRQAHGKEREFVAAISWSGGSTYYADSVKGRFTISRDNAKKTVYLQRNSLKPEDTAVFFCATTPGVWSTGGTNGFGYWGQGTQVTVSS	high polyreactivity
QVQLVESGGGLVQAGGSLRLSCAASGSIVSYYAMGWYRKAPGKERELVAAISKSGGRTYYADSVKGRFTISRDNAKNTVYLQMNSLKPEDTAVYYCAAPATYKYEYWGQGTQVTVSS	high polyreactivity
QVQLVESGGGLVQAGGSLRLSCAASGSIVVDYAMGWYRQAPGKERELVAAITSTGSTTYADSVKGRFTISRDNAKNTVYLQMNSLKPEDTAVYYCAASFRWYGTVRYPYEMYYWGQGTQVTVSS	low polyreactivity
QVQLVESGGGLVQAGGSLRLSCAASGSIVYVYAMGWYRQAPGKEREVVAAINTSGGSTYADSVKGRFTISRDNAKNTVYLQMNSLKPEDTAVYYCAADGYYEYTWGEYDSWGQGTQVTVSS	low polyreactivity
QVQLVESGGGLVQAGGSLRLSCAASGSIYDFYAMGWYRQAPGKERELVAAISWSGTSTYYADSVKGRFTISRDNAKNTVYLQMNSLKPEDTAVYYCAVVAGQSYFNRYDYWGQGTQVTVSS	low polyreactivity
QVQLVESGGGLVQAGGSLRLSCAASGSIYFTNAMGWYRQAPGKERELVAAIRWRGDRTYYADSVKGRFTISRDNGKNTVYLQMNSLIPEDTAVYYCAVAPSYKITEDSWGQGTQVTVSS	low polyreactivity
QVQLVESGGGLVQAGGSLRLSCAASGSIYGPYAMGLYRQAPGKERELVAAISSGGSTYYADSVKGRFTISRDNAKNTVYLQMNSLKPEDTAVYYCNKYWGFSYLPYDSWGQGTQVTVSS	low polyreactivity
QVQLVESGGGLVQAGGSLRLSCAASGSIYGTNAMGWYRQAPGKERELVSAIDGGSTTYYADSVKGRFTISRDNAKNTVYLQMNSLKPEDTAVYYCAADGTRYLNYEGYAGYEYWGQGTQVTVSS	low polyreactivity
QVQLVESGGGLVQAGGSLRLSCAASGSIYGYVKGWYRPAPGKERELVAAIRRSGGSTYYADSVKGRFTISRDNAKNTVYLQMNSLKPEDTAVYYCAARTYGTDRYYYWGQGTQVTVSS	high polyreactivity
QVQLVESGGGLVQAGGSLRLSCAASGSIYHVYALGWYRQAPGKERELVATISSGGSTYYADSVKGRFTISRDNEKNTVYLQMNSLKPEDTAVYYCNADWFLYGGWYGYGYWGQGTQVTVSS	low polyreactivity
QVQLVESGGGLVQAGGSLRLSCAASGSIYINARGWYRQAPGKERELVAAISSGGSTNYADSVKGRFTISRDNAKNTVYLQMNSLKPEDTAVFYCATRRYRGPWYRNAYDYWGQGTQVTVSS	low polyreactivity
QVQLVESGGGLVQAGGSLRLSCAASGSIYLIYAMGWYRQAPGKERELDAAISRSGGHTYYADSVKGRFTISRDNAKITVYLQMNSLKPEDTAVYYCAAKSYSSGTYGYNYWGQGTQVTVSS	high polyreactivity
QVQLVESGGGLVQAGGSLRLSCAASGSIYLKYAMGWYRQAPGKERELVAAISSRGGSTYYADSVKGRFTISRDNAKNTVYLQMNSLKPEDTAVYYCAAKRWPGTDGYWGQGTQVTVSS	high polyreactivity
QVQLVESGGGLVQAGGSLRLSCAASGSIYLYAMGWYIQAPGKERELVADISFSDGSTYYADSVKGRFTISRDNAKNTVYLQMNSLKPEDTAVYYCAAGVWHHASWDFLEYYYWGQGTQVTVSS	low polyreactivity
QVQLVESGGGLVQAGGSLRLSCAASGSIYQYNAMGWYRQAPGKERELVAAISSRGGITYYADSVKGRFTISRDNAKNTVYLQMNSLKPEDTAVYYCAAEGYYSEVRWYEYWGQGTQVTVSS	high polyreactivity
QVQLVESGGGLVQAGGSLRLSCAASGSIYSRNAMGWYRQAPGKERELVAGISTGGSTNYADSVKGRFTISRDNAKNTVYLQMNSLKPEDTAVYYCAAPLAYEGDYWGQGSQVTVSS	low polyreactivity
QVQLVESGGGLVQAGGSLRLSCAASGSIYTRYPMGWYRQAPGKERELVAAISINGGSTYYADSVKGRFTISRDNAKNTVYLHMNSLKPEDTAVYYCARHYYRWNNFLYLSGYYWGQGSQVTVSS	high polyreactivity
QVQLVESGGGLVQAGGSLRLSCAASGSIYTYYAMGWYRQAPGKEMELVADIRWSGGSTYYADSVKGRFTISRDNAKNTVYLQMNSLKPEDTAVYYCNARYYSYCPIYNFDYWGQGTQVTVSS	low polyreactivity
QVQLVESGGGLVQAGGSLRLSCAASGSIYTYYAMGWYRQAPGKERELVAAINSGGRTNYADSVKGRFTISRDNAKNTVYLQMNSLKPEDTAVYYCAADGSVSYYTYYYWGQGTQVTVSS	low polyreactivity
QVQLVESGGGLVQAGGSLRLSCAASGSIYYNAMGWYRQAPGKERELVASISTGDSTDYADSVKGRFTISRDNAKNTFYLQMNSLKPEDTAVYYCAADTRLGYWDDYWGQGTQVTVSS	low polyreactivity

Sequence	polyreactivity (PSR sort gate)
QVQLVESGGGLVQAGGSLRLSCAASGSIYYRNGMGWYRQAPGKEREFVATITNNGGNTYYADSVKGRFTISRDNAKNTVYLQLNSLKPDDTAVYYCAAGPTWSWGYYYWGQGTQVTVSS	high polyreactivity
QVQLVESGGGLVQAGGSLRLSCAASGSKFWGYAMGWYRKAAGKERELVAAITDSGGRTYYADSVKGRFTISRDNEKNTVYLQMNSLKPEDTAVYYCAADYYSQYYYYAVPDRDYWGQGTQVTVSS	low polyreactivity
QVQLVESGGGLVQAGGSLRLSCAASGSLFYPYAMGWYRQAPGKERELVAAIDLSGGSTYYADAVKGRFTISRDNAKNTVYLQMNSLKPEDTAVYYCAADYGYTYAYDYWGQGTQVTVSS	low polyreactivity
QVQLVESGGGLVQAGGSLRLSCAASGSLFYYYPMGWYRQAPGKERELVATINISDRSTYYADSVKGRFTISRDYAKNTVYLQMNSLKPEDTAVYDCAAYYYFQDYDYWGQGTQVTVSS	low polyreactivity
QVQLVESGGGLVQAGGSLRLSCAASGSLSYTYGMGCYRQAPGKERELVAAISTSGGNTYYADSVKGRFTISRDNAKNSVYLQMNSLKPEDTAVYYCSAYYGRGSIKRYYYWGQGTQVTVSS	high polyreactivity
QVQLVESGGGLVQAGGSLRLSCAASGSMFANNAMGWYRQAPGKERELVAAITSGGNTDNADSVKGRFTISRDNAKYTVYLQMNSLKPEDTAVYYCAAERPPYGYLVVGYVSTQYYYWGQGTQVTVSS	low polyreactivity
QVQLVESGGGLVQAGGSLRLSCAASGSMFIWNAMGWYRQAPGKARELVAAISFTGTSTYYADSVKGRCTSSRDNAKNTVYLQMNSLKPEDTAVYYCNTDYRGSQYDYWVQGTQVTVSS	low polyreactivity
QVQLVESGGGLVQAGGSLRLSCAASGSMFVRYAMGWYRQAPGKERELVAAISSDGNTYYADSVKGRFTISRDNAKNTVYLPRNSLKPEDTAVYYCAAKTRSRYYWGQGTQVTVSS	high polyreactivity
QVQLVESGGGLVQAGGSLRLSCAASGSMFYFYAMGWYRQAPGKERELVAAISWCDGDTYYADSVKGRFTISRDNAKNTVYLQMNSLKPEDSAVYYCAAEGLTRYYQYDYWGQGTQVTVSS	high polyreactivity
QVQLVESGGGLVQAGGSLRLSCAASGSMIAFYVMGLYRQAPGKERELVAAINRGGTNTYYADSVKGRFTISRDNAKNTVYLQMNSLKPEDTAVYYCAADGDRSAQRYTGYYYWGQGTQVTVSS	high polyreactivity
QVQLVESGGGLVQAGGSLRLSCAASGSNFDLNAMGWYRQAPGKERELVAAISSGGGTYYADSVKGRFTISRDNAKTPVYLQMNSLKPEDTAVYYCNRVTRWTYNYWGQGTQVTVSS	high polyreactivity
QVQLVESGGGLVQAGGSLRLSCAASGSNFDYNTMGWYRQAPGKEREFVAAISSSGGGTSYADSVKGRFTISRDNAKNTVYLQMNSLKPEDTAVYYCAALIKLTPYQRQYWKYRAYYYGGQGTQVTVSS	high polyreactivity
QVQLVESGGGLVQAGGSLRLSCAASGSNFDYYAMGWYRQAPGKERELVAAISSTDGSTFYADSVKGRFTISRDNAKNTVYLQMNSLKPEDTAVYYCAVVGYYYPWPNGYDYWGQGTQVTVSS	low polyreactivity
QVQLVESGGGLVQAGGSLRLSCAASGSNFFTNAMGGYRQAPGKERELVAVITKRGGSTYYADSVKGRFTISRDNAKNTVYIQMNSLKPEDTAVYYCAADARQWRYYYWGQGSQVTVSS	high polyreactivity
QVQLVESGGGLVQAGGSLRLSCAASGSNFGDNPMGWYRQAPGKERELVAAISSSGDSTYYADSVKGRFTISRDNAKNTVYLQMNSLKPEDTAVYYCADDRGSTAGSVTYTPGNYWGQGTQVTVSS	low polyreactivity
QVQLVESGGGLVQAGGSLRLSCAASGSNFLIYAMGSYSQAPGKERELVAAITFSGCSTYADSVKGRFTISRENAKNTVYLQMNSLKPEDTAVYYCAADSTKYAYDYWGQGTQVTVSS	low polyreactivity
QVQLVESGGGLVQAGGSLRLSCAASGSNFLPNAMGWYRQAPGKERELVAAISWSDDSTYYADSVKGRFTISRDNAKNTVDLQMNSLNPEDTAVYYCAADVGLWYDYWGQGTQVTVSS	high polyreactivity
QVQLVESGGGLVQAGGSLRLSCAASGSNFRVYAMGWYRQAPGKESELVAAIDSGTSTTYADSVKGRFTISRDNAKNTVYLQMNSLKPEDTAVYYCAADGWLWSFTGDGWWFDYWGQGTQVTVSS	low polyreactivity
QVQLVESGGGLVQAGGSLRLSCAASGSNFSDYAMGWYRQAPGKEREFVATITWSGTSTYYADSVKGRFTISRDNAKNTVYLQMNSLKAEDTAVYYCAAELLFWLGLVPGTIFDEFDYWGQGTQVTVSS	low polyreactivity
QVQLVESGGGLVQAGGSLRLSCAASGSNFSRYAMGWYRQAPGKERDLVAAITSTGDSTSYADSVKGRFTISRDNAKNTVYVQMNSLKPEDTAVYYCAIVYVYRYVIPYDYWGQGTQVTVSS	low polyreactivity
